From the nanobody polyreactivity screen of Harvey et al. (2022)

test: yeast display, Sf9 membrane polyspecificity reagent, FACS + sequencing; frameworks hold sequencing errors
Summary of the method: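 A synthetic nanobody library was expressed on Saccharomyces cerevisiae BJ5465 by galactose induction for 36–48 hours. The library was stained for 1 hour at 4 °C with 10% biotinylated, detergent-solubilized Sf9 membrane reagent and enriched with streptavidin microbeads before FACS. Low and high (top ~1%) gates were set on anti-HA fluorescence for expression and streptavidin fluorescence for reagent binding, and each polyreactivity label reflects the gate of origin.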

Row | Sequence | polyreactivity (PSR sort gate)
1 | QVQLVESGGGLVQAGGSLRLSCAASGRTFVQNAMGWYRQAPGKERELVAAITWSTSGTYYADSVKGRFTISRDNAKNTVYLQMNSLKPEDTAVYYCAKYLAAYTGGGGYWGQGTQVTVSS | low polyreactivity
2 | QVQLVDSGGGLVQAGGSLRLSSAASGRIFPRYAMGWDRQAPGKERELVATISSGGSTYYADSVKGRFTISRDNAKNTVYLQMISLKPEDTAVYYCATGRQVVRSYSEGDYWGQGTQVTVSS | low polyreactivity
3 | QVQLVESGGGLVQAGGSLRLSCAASGRIFRPYAMGWYRLAPGKERELVAAISWSGDDTYYADSVKGRFTISRDNAKNTVYLQMNSLKPEDTAVYYCAAEVYAAAYDYWGQGTQVTVSS | low polyreactivity
4 | QVQLVESGGGLVQAGGSLRLSCAASGNTFQYYAMGWYRQAPGKEREFVAAISRRGGSTYYADSVKGRFTISRDNAKNTVYLQMNSLKPEDTAVYYCNKVIFLSQSSYSFHYAYDYWGQGTQVTVSS | high polyreactivity
5 | QVQLVESGGRLVQAGGSLRLSCAASGFTFGENAMGWYRQAPGKERELVAAITSGDGTSYADSVKGRFTISRDNAKNTVYLQMNSLKPEDTAVYYCAADGGDELYYSTYDYWGQGTQVTVSS | low polyreactivity
6 | QVQLVESGGGLVQAGGSLRLSCAASGSIFTHNAMGWSRQAPGKERELVATISYGGGRTYYADSVKGRFTISRDNAKNTVYLQMNSLKPEDTAVYYCNALRGGPFRWHGYYYWGQGTQVTVSS | low polyreactivity
7 | QVQIVESGGGLLQAGGSLRLSCAASGRIFRRNAMGWYRQATGKERELVAAISKSGGSTYYADSVKGRFTISRDNAKNTVYLQMNSLKPEDTAVYYCAAEYSDRYDYWGQGTQVTVSS | high polyreactivity
8 | QVQLVESGGGLVQAGGSLRLSCAASGSTFAYYAMGWYRQAPGKEREMVAAISSGGSTYYADSVKGRFTISRDNAKNTVYLQMNSLKPEDTAVYYCNAEVPGHYFDGWYFYDFDYWGQGTQVTVSS | low polyreactivity
9 | QVQLVESGGGLVQAGGSLRLSCAASGSTFPDYSKGWYRQAPGKERLLVADITYGGSSTYYADSVKGRFTISSDNAKNTVYLQMNSLKPDDTAVYYCAADTDYYTLIRSVLAYDYWGQGTQVTVSS | low polyreactivity
10 | QVQLVESGGGLVQAGGSLRLSCAASGFIFWLYAMGWSRQAPGKERELVASINWSGGDTYYADSVKGRFTISRDKAKNTVYLQMNSLKPEDTAVYYCAARYWSIYDYWGQGTQVTVSS | low polyreactivity
11 | QVQLVESGGGLVQAGGSLRLSCSSSGRIFLNSMGWYRQAPGKEREFVAAITRSADSTYYADSVKGRFTISRDNAKNTVYLQMNSLKPEDTAVYYCNKPFPYYPDGPNGYDYWGHGTQVTVSS | low polyreactivity
12 | QVQLVESGGGLVQAGGSLRLSCAASGRIFSRNAMGWYRQAPGKERELVAAISRSGGSTYYADSVKGRFTISRDNAKNTVYLQMNSLKPEDTAVYYCNTRYRPVKGSGPRYDYWGQGTQVTVSS | low polyreactivity
13 | QVQLVESGGGLVQAGGSLRLSCAASGITFGGNAMGWYRQAPGKERELVAAISSSGGSTYYADSVKGRFTISRDNAKNTVYLQMNSLKPEDTAVYYCAARNRYPLRFYYWGQGTQVTVSS | high polyreactivity
14 | EEELVESGGGLVQAGVSLRISCAASGSIFNYNAMGWYRQAPGKERELVAAISRGGTTNYADSVKGRFTISRDNANNTVYLQMNSLKPEDTAVYYCAAKAYDYYGPVYYWGQGSQVTVSS | high polyreactivity
15 | QVQLVESGGGLVQAGGSLRLSCAASGRIFPPYGMGWYRQAPGKERELVAGITSDGSTNYADSVKGRFTISRDNAKNTVYLQMNSLKPEDTAVYFCAADQGSWYYYPVYYYGGDYWGQGTQVTVSS | low polyreactivity
16 | QVQLVESGGGLVQAGGSLRLSCAASGFNFWRYAMGWYRQAPGKERELVAVITWSGTRTYYADSVKGRFTISRDNAKNTVYLQMNSLKPEDTAVYYCAALYYGFRLTYGYDYWGQGTQVTVSS | high polyreactivity
17 | QVQLVESGGGLVQAGGSLRLSCAASGFTFYDYAMGWYRQAPGKERELVAAISDSGGITYYADSVTGRFTISRDNAKNTVYLQMNSLKPEDTAVYYCAADFATPGPEYDYWGQGTQVTVSW | low polyreactivity
18 | QVQLVESGGGLVQAGGSLRLSCAASGFTFSDYAMGWYRQAPGKERELVAAISSSGGSTYYADSVKGRFTISRDNAKNTVYLQMNSLKPEDNAVYYCAASSYSFRYRYDTWWYYYWGQGTQVTVSS | high polyreactivity
19 | QVQLVESGVCLVQAGGSLRLSCAATGSIFEYNAMGWYRQAHGKERELVAAITRGGNTYYADSVKGLFTISRDNAKNTVYLQMNSLKPEDTAVYYCAAVEWYGYPYYYWGQGTQVTVSS | low polyreactivity
20 | QVQLVESGGGLVQAGGSLRLSCAASGSTFKAYAMGWYRQAPGKERELVAAITKSGGRTYYADSVKGRFTISRDNAKNTVYLQMNSLKPEDTAVYYCAAVFRPDSSAYRYYYWGQGTQVTVSS | high polyreactivity
21 | QVQLEESGGGLVQAGGSLRLSCAGSGRIFIHYTMGWYRQAPGKERELVAAISTSGGSTYYADSVKGRFTISRDTAKNTVYLQMKSLKPEDTAGYYCAPVYRGYSGEGYYWGQGSQVTVSS | high polyreactivity
